Measurements from paper PMC7959842, “Deregulation of Factor H by Factor H-Related Protein 1 Depends on Sialylation of Host Surfaces” (Frontiers in Immunology, 2021).

Key:
[1] = target: C3b (UniProt P01024); test: SPR; AP C3 convertase formation: ~6,000 RU C3b amine-coupled on a CMD500M chip; FB (600 nM) + FD (100 nM) injected alone or mixed with analyte (9.6 uM); signal of the analyte alone subtracted; 25 C, PBS 0.005% Tween20, 1 mM MgCl2
[2] = target: C3b (UniProt P01024); test: SPR; C3b immobilised in two ways: biotin coupling (~1,500 RU on a streptavidin SAP chip) and amine coupling (~7,250 RU on a CMD500M chip); analytes flowed (FH18-20 constructs 0.16-40 or 0.63-40 uM, FHR-1 constructs 0.04-10 uM); 25 C, PBS 0.005% Tween20, 25 ul/min; 1:1 steady-state affinity fit; the printed ranges span both ways of immobilisation

Row | Substance | decrease of the AP C3 convertase signal (FB + FD on C3b) with the analyte co-injected at 9.6 uM [1] | Kd [2]
1 | FHR-1(SV) (from UniProt Q03591 19-330) (natural protein) | 50% | 1.4 to 1.5 µM
2 | FHR-1 (factor H-related protein 1, FHR-1*B, wild-type) (from UniProt Q03591 19-330) (natural protein) | 50% | –
